Laboratory results published in patent US20160209426A1 (Genentech, published 2016).

Target: T1, integrin alphaEbeta7 (human, UniProt P38570 19-1179; P26010 20-798)
T1 construct: whole, on cells; In the occupancy experiments it stood on T lymphocytes from patients' colonic biopsies; also called αEβ7; αEβ7 receptor
Assay: flow cytometry on CD45+CD3+CD4- T lymphocytes from a pre-dose colonic biopsy
Experimental: Etrolizumab binds the β7 subunits of the heterodimeric integrins α4β7 and αEβ7. While α4β7 is expressed on leukocyte subsets in both blood and mucosal tissue, αEβ7 is primarily confined to intraepithelial lymphocytes and dendritic cells in mucosal tissue. Therefore, to evaluate the pharmacology and mechanism of action of etrolizumab at the site of action as well as in circulation, colonic tissue was assessed in addition to peripheral blood. Colonic tissue biopsies were collected using standard surgical procedures from 23 consented, study-enrolled patients at pre-dose (screen) and at certain post dose time points (day 43 and day 71). […]
Similar to the flow cytometry assay conducted on peripheral blood cells, occupancy of β7 integrin receptors on colonic tissue T lymphocyte subsets was assessed by staining with fluorescently labeled (PE label) FIB504, while expression of β7 integrin receptors was evaluated using fluorescently labeled 9D8 (PE label). […] Samples were then acquired on a BD FACS Cantoll™ or a BD FACSCalibur™ (BD Biosciences, San Jose, Calif. USA) and analyzed by gating on subsets of αEβ7-expressing and α4β7-expressing CD3+CD45+, αEβ7-expressing and α4β7-expressing CD3+CD4+CD45+, and αEβ7-expressing and α4β7-expressing CD3+CD4-CD45+ T cell subsets. […]

T1 sequence (P38570 19-1179, chain 1 of 2): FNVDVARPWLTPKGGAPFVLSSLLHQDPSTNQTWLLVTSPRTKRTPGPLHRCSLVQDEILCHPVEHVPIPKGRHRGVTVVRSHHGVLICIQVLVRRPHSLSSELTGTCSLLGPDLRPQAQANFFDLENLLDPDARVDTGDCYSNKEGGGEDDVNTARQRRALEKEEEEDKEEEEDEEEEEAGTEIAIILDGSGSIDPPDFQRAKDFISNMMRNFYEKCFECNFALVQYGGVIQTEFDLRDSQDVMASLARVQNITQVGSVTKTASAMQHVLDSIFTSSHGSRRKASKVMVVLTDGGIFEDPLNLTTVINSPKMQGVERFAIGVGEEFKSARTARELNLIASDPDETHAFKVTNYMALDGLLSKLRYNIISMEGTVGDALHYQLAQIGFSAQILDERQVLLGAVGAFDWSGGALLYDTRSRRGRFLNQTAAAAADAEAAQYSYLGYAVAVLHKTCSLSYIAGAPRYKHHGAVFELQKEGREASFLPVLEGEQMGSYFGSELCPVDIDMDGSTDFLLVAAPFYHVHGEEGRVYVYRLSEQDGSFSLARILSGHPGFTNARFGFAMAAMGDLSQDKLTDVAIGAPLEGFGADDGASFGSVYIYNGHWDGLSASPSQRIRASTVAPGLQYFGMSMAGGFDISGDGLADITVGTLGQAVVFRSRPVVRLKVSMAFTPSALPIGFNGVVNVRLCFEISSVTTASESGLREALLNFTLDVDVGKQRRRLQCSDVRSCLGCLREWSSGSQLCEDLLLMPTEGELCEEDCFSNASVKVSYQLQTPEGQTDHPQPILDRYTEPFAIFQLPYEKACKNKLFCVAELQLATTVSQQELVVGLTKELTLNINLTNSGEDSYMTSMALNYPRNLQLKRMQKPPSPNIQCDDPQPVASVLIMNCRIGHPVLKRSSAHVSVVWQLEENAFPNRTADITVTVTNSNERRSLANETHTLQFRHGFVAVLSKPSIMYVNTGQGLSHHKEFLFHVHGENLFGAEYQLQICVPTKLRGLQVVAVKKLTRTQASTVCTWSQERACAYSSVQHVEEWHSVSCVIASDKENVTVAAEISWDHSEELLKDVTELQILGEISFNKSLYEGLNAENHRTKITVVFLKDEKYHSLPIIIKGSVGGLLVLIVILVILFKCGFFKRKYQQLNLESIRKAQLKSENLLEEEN
T1 sequence (P26010 20-798, chain 2 of 2): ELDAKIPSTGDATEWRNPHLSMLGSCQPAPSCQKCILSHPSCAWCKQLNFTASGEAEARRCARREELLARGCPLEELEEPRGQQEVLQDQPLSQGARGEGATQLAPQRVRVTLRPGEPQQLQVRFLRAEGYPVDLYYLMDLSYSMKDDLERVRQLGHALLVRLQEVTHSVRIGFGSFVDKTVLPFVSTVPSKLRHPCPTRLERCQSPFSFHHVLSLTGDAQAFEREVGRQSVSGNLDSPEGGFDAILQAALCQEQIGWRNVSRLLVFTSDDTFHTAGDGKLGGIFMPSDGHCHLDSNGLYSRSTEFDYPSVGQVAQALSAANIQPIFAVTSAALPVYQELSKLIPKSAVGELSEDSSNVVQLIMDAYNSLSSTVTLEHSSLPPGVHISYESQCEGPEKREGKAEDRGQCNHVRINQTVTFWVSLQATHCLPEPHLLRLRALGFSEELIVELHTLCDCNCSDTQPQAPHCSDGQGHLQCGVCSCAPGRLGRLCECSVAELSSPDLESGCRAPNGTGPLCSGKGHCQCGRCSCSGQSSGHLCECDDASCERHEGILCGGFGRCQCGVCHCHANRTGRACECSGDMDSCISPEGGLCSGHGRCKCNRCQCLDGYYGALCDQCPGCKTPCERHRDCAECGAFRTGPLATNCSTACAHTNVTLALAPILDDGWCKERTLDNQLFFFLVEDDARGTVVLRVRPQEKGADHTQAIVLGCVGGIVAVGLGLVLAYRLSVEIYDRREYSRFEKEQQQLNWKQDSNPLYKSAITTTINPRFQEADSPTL

B1: FIB504 (rat anti-mouse/human beta7 monoclonal antibody), fluorescently labeled (antibody, V domains shown)
VH: EVQLQESGPGLVKPSQSLSLTCSVTGFFITNNYWGWIRKFPGNKMEWMGYISYSGSTSYNPSLKSRISITRDTSKNQFFLQLNSVTTEDTATYYCAMTGSSGYFDFWGPGTMVTVSS
VL: DVVMTQSPATLSVTPGERISLSCRASESVDTYLHWYQQKPNESPRLLIKYASQSISGIPSRFSGSGSGTDFTLSINGVELEDLSIYYCQQGNSLPNTFGAGTKLELKR
notes: Bought reagent (BD Biosciences), fluorescently labeled (PE label for colonic tissue)
B1: binds.
